The record followed here is US20130231277A1.

In this assay the target is FGFR1c endogenously expressed by HEK293 cells transiently transfected with murine βKlotho (UniProt P11362). Kind of assay: cell-based or functional assay.
FGFR1c endogenously expressed by HEK293 cells transiently transfected with murine βKlotho, sequence (P11362 22-822): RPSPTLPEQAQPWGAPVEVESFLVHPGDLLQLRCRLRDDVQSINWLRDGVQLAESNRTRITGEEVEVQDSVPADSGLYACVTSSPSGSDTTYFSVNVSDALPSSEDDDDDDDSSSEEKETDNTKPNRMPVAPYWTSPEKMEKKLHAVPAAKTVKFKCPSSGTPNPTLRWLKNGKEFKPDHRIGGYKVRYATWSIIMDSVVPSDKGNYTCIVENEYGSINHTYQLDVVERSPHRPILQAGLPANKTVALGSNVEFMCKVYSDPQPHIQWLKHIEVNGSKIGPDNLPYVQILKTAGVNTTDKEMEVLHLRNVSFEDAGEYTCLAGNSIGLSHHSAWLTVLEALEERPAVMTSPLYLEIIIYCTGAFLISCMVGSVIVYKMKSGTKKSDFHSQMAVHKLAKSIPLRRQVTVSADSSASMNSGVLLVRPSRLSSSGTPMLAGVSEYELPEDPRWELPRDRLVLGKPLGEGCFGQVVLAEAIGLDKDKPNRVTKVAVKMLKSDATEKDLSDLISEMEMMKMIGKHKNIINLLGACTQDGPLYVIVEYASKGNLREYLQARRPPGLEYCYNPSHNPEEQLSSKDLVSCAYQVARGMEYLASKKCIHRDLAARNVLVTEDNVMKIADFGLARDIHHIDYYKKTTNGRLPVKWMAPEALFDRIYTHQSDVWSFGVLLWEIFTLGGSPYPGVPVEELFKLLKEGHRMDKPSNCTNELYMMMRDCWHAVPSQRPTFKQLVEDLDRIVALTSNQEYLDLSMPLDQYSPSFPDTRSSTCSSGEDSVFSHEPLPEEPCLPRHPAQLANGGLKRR

For the substance “Q104M single mutant of human FGF21 (SEQ ID NO: 152) (from UniProt Q9NSA1 29-209) (ligand)”, the Induction of Egr1 protein expression (immunoblot, HEK293 cells co-expressing FGFR1c and βKlotho) came to 30 ng/mL.
